Measurements from article PMC3404088, “Development of a Small D-Enantiomeric Alzheimer’s Amyloid-β Binding Peptide Ligand for Future In Vivo Imaging Applications” (PLoS ONE, 2012).
Square brackets hold non-standard residues; d marks the D form. Primed or numbered codes have the meaning given here. Ends that are not written are not given here. FITC′ = fluorescein isothiocyanate (ϕ)

How the values were obtained:
Conditions in all cases: both partners purified
[1] = biological target: T1, Aβ1–42 peptide film (mostly monomeric Aβ1–42) (UniProt P05067 672-713); assay: ELISA; Aβ1–42 peptide film (mostly monomers) coated on the plate (10 µg/ml, bicarbonate-carbonate buffer pH 9.6); D-compounds from 10 µg/ml, 2 h at 37°C; detected by anti-fluorescein isothiocyanate-AP, pNPP 2.5 h
T1 construct: amyloid-β peptide Aβ1–42, cut from the amyloid precursor protein (APP), freshly dissolved peptide film containing mostly monomers and smaller oligomers; Same peptide as m14, not fibrillised; also called Aβ1–42 monomers; Aβ peptide film; source: bought: Bachem (lyophilized powder); HFIP film, reconstituted with 0.54% DMSO in PBS

Aβ1–42 fibrils [2] = biological target: T2, Aβ1–42 fibrils (UniProt P05067 672-713); assay: SPR; Biacore 1000; Aβ1–42 fibrils (6800 RU) immobilised on a CM5 chip by amine coupling; PBS pH 7.4; analytes 50 µg/ml, 5 µl/min for 2 minutes, ambient temperature; semi-quantitative: response in % of ACI-80-Kϕ
T2 construct: amyloid-β peptide Aβ1–42, cut from the amyloid precursor protein (APP), in fibrillar form; Aggregated (fibrillar) state of the same peptide as m15; also called fibrillar Aß1–42; Aβ fibrils; source: bought: JPT Biotech or Bachem AG (HPLC purified peptide); fibrils formed at 37°C (7 days in PBS pH 7.4 for SPR; five days in 50 mM Tris-HCl pH 7.4 for ELISA)

Aβ1–42 fibrils [3] = biological target: T2, Aβ1–42 fibrils; assay: ELISA; Aβ1–42 fibrils coated on the plate (10 µg/ml, bicarbonate-carbonate buffer pH 9.6); D-compounds from 10 µg/ml, 2 h at 37°C; detected by anti-fluorescein isothiocyanate-AP, pNPP 2.5 h
Aβ1–42 fibrils [4] = biological target: T2, Aβ1–42 fibrils; assay: SPR; Biacore T100, single-cycle mode, 25°C; Aβ1–42 fibrils immobilised on a CM5 chip by amine coupling; PBS pH 7.4, 30 µl/min; 100 to 62500 nM in fivefold steps, 60 s each; heterogeneous ligand model

T2 sequence (P05067 672-713): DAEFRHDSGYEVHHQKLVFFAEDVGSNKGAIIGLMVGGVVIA
T1 sequence (P05067 672-713): as above

Binder | % binding relative to ACI-80-Kϕ [1] [%] | binding value (ELISA, 10 ug/mL compound) [1] | Dissociation [%] (response 60 s after end of injection, relative to ACI-80-Kϕ) (Aβ1–42 fibrils [2]) | Interaction [%] (maximal response during injection, relative to ACI-80-Kϕ) (Aβ1–42 fibrils [2]) | % binding relative to ACI-80-Kϕ (Aβ1–42 fibrils [3]) [%] | binding value (ELISA, 10 ug/mL compound) (Aβ1–42 fibrils [3]) | K D1 (heterogeneous ligand model, site 1) (Aβ1–42 fibrils [4]) | K D2 (heterogeneous ligand model, site 2) (Aβ1–42 fibrils [4]) | k off1 (heterogeneous ligand model, site 1) (Aβ1–42 fibrils [4]) | k off2 (heterogeneous ligand model, site 2) (Aβ1–42 fibrils [4]) | k on1 (heterogeneous ligand model, site 1) (Aβ1–42 fibrils [4]) | k on2 (heterogeneous ligand model, site 2) (Aβ1–42 fibrils [4])
[dP][dS][dH][dY][dR][dH][dI][dS][dP][dA][dQ][dK][dK](FITC′) (also: [19F]-4-fluorobenzoyl label, place not given here, D-enantiomeric derivative of ACI-80 (D1): Q1P, V12K, added C-terminal lysine, fluorinated; also called D1-Q1P-V12K-K[^19F]ϕ; source: synthetic peptide, reacted with [^19F]-N-succinimidyl-4-fluorobenzoate (SFB), HPLC purified) [[^19F]-ACI-89-Kϕ] | 243 | 1.19 | 0 | 476 | 207 | 1.86 | – | – | – | – | – | –
[dP][dS][dH][dY][dR][dH][dI][dS][dP][dA][dQ][dK][dK](FITC′) (D-enantiomeric derivative of ACI-80 (D1): Q1P, V12K, added C-terminal lysine; also called D1-Q1P-V12K-Kϕ; source: synthetic peptide (JPT Peptide Technologies GmbH, Berlin)) [ACI-89-Kϕ] | 216 | 1.06 | 533 | 518 | 165 | 1.49 | 8e-06 | 3.53e-06 | 0.162 | 0.0118 | 20300 | 3340
[dP][dS][dH][dY][dR][dH][dI][dS][dP][dA][dQ][dV][dK](FITC′) (D-enantiomeric derivative of ACI-80 (D1): Q1P, added C-terminal lysine; also called D1-Q1P-Kϕ; source: synthetic peptide (JPT Peptide Technologies GmbH, Berlin)) [ACI-83-Kϕ] | 214 | 1.05 | 200 | 600 | 167 | 1.5 | – | – | – | – | – | –
[dQ][dS][dH][dY][dR][dH][dI][dS][dP][dA][dQ][dK][dK](FITC′) (D-enantiomeric derivative of ACI-80 (D1): V12K, added C-terminal lysine; also called D1-V12K-Kϕ; source: synthetic peptide (JPT Peptide Technologies GmbH, Berlin)) [ACI-87-Kϕ] | 122 | 0.79 | 443 | 324 | 103 | 0.93 | 8.93e-06 | 2.59e-05 | 0.00184 | 0.0407 | 206 | 1570
[dQ][dS][dH][dY][dR][dH][dI][dS][dP][dA][dQ][dV][dK](FITC′) (D-enantiomeric peptide ACI-80 (D1), selected by mirror image phage display on aggregated Aβ1–42, with an added C-terminal lysine; also called D1-Kϕ; source: synthetic peptide (JPT Peptide Technologies GmbH, Berlin)) [ACI-80-Kϕ] | 100 | 0.49 | – | – | 100 | 0.9 | 5.38e-05 | 0.000115 | 0.0252 | 1.58 | 469 | 13700
[dP][dS][dF][dY][dR][dH][dI][dS][dP][dA][dQ][dV][dK](FITC′) (D-enantiomeric derivative of ACI-80 (D1): Q1P, H3F, added C-terminal lysine; also called D1-Q1P-H3F-Kϕ; source: synthetic peptide (JPT Peptide Technologies GmbH, Berlin)) [ACI-86-Kϕ] | 163 | 0.8 | 40 | 21 | 138 | 1.24 | – | – | – | – | – | –
[dQ][dS][dH][dY][dR][dH][dI][dS][dP][dA][dQ][dK][dK](FITC′) (also: [19F]-4-fluorobenzoyl label, place not given here, D-enantiomeric derivative of ACI-80 (D1): V12K, added C-terminal lysine, fluorinated; The text says V12K was made to enable fluorination; also called D1-V12K-K[^19F]ϕ; source: synthetic peptide, reacted with [^19F]-N-succinimidyl-4-fluorobenzoate (SFB), HPLC purified) [[^19F]-ACI-87-Kϕ] | 176 | 0.86 | 67 | 153 | 140 | 1.26 | – | – | – | – | – | –
[dS][dH][dY][dR][dH][dI][dS][dP][dA][dQ][dV][dK](FITC′) (D-enantiomeric derivative of ACI-80 (D1): N-terminal glutamine deleted (Q1X), added C-terminal lysine; also called D1-Q1X-Kϕ; source: synthetic peptide (JPT Peptide Technologies GmbH, Berlin)) [ACI-82-Kϕ] | 167 | 0.82 | 300 | 393 | 142 | 1.28 | – | – | – | – | – | –
[dS][dF][dY][dR][dH][dI][dS][dP][dA][dQ][dV][dK](FITC′) (D-enantiomeric derivative of ACI-80 (D1): N-terminal glutamine deleted (Q1X), H3F, added C-terminal lysine; also called D1-Q1X-H3F-Kϕ; source: synthetic peptide (JPT Peptide Technologies GmbH, Berlin)) [ACI-85-Kϕ] | 129 | 0.63 | 40 | 229 | 111 | 1 | – | – | – | – | – | –
[dS][dH][dY][dR][dH][dI][dS][dP][dA][dQ][dK][dK](FITC′) (also: [19F]-4-fluorobenzoyl label, place not given here, D-enantiomeric derivative of ACI-80 (D1): N-terminal glutamine deleted (Q1X), V12K, added C-terminal lysine, fluorinated; also called D1-Q1X-V12K-K[^19F]ϕ; source: synthetic peptide, reacted with [^19F]-N-succinimidyl-4-fluorobenzoate (SFB), HPLC purified) [[^19F]-ACI-88-Kϕ] | 214 | 1.05 | 1230 | 294 | 196 | 1.76 | – | – | – | – | – | –
[dS][dH][dY][dR][dH][dI][dS][dP][dA][dQ][dK][dK](FITC′) (D-enantiomeric derivative of ACI-80 (D1): N-terminal glutamine deleted (Q1X), V12K, added C-terminal lysine; also called D1-Q1X-V12K-Kϕ; source: synthetic peptide (JPT Peptide Technologies GmbH, Berlin)) [ACI-88-Kϕ] | 263 | 1.29 | 667 | 365 | 198 | 1.78 | 4.22e-07 | 5.95e-05 | 0.00722 | 0.0553 | 17100 | 930
